Results reported in FireProtDB (doi:10.1006/jmbi.2000.4053).

Conditions: Homo sapiens, pH 5, 25 °C
[1] = GdnHCl, Fluorescence, Sodium acetate 50mM, transition: 2, structure 1TEN
[2] = Urea, CD, Sodium acetate 50 mM, structure 1TEN
[3] = GdnHCl, CD, Sodium acetate 50 mM, structure 1TTG

Chain of Fibronectin F1585A, P02751 (P02751 whole entry F1585A): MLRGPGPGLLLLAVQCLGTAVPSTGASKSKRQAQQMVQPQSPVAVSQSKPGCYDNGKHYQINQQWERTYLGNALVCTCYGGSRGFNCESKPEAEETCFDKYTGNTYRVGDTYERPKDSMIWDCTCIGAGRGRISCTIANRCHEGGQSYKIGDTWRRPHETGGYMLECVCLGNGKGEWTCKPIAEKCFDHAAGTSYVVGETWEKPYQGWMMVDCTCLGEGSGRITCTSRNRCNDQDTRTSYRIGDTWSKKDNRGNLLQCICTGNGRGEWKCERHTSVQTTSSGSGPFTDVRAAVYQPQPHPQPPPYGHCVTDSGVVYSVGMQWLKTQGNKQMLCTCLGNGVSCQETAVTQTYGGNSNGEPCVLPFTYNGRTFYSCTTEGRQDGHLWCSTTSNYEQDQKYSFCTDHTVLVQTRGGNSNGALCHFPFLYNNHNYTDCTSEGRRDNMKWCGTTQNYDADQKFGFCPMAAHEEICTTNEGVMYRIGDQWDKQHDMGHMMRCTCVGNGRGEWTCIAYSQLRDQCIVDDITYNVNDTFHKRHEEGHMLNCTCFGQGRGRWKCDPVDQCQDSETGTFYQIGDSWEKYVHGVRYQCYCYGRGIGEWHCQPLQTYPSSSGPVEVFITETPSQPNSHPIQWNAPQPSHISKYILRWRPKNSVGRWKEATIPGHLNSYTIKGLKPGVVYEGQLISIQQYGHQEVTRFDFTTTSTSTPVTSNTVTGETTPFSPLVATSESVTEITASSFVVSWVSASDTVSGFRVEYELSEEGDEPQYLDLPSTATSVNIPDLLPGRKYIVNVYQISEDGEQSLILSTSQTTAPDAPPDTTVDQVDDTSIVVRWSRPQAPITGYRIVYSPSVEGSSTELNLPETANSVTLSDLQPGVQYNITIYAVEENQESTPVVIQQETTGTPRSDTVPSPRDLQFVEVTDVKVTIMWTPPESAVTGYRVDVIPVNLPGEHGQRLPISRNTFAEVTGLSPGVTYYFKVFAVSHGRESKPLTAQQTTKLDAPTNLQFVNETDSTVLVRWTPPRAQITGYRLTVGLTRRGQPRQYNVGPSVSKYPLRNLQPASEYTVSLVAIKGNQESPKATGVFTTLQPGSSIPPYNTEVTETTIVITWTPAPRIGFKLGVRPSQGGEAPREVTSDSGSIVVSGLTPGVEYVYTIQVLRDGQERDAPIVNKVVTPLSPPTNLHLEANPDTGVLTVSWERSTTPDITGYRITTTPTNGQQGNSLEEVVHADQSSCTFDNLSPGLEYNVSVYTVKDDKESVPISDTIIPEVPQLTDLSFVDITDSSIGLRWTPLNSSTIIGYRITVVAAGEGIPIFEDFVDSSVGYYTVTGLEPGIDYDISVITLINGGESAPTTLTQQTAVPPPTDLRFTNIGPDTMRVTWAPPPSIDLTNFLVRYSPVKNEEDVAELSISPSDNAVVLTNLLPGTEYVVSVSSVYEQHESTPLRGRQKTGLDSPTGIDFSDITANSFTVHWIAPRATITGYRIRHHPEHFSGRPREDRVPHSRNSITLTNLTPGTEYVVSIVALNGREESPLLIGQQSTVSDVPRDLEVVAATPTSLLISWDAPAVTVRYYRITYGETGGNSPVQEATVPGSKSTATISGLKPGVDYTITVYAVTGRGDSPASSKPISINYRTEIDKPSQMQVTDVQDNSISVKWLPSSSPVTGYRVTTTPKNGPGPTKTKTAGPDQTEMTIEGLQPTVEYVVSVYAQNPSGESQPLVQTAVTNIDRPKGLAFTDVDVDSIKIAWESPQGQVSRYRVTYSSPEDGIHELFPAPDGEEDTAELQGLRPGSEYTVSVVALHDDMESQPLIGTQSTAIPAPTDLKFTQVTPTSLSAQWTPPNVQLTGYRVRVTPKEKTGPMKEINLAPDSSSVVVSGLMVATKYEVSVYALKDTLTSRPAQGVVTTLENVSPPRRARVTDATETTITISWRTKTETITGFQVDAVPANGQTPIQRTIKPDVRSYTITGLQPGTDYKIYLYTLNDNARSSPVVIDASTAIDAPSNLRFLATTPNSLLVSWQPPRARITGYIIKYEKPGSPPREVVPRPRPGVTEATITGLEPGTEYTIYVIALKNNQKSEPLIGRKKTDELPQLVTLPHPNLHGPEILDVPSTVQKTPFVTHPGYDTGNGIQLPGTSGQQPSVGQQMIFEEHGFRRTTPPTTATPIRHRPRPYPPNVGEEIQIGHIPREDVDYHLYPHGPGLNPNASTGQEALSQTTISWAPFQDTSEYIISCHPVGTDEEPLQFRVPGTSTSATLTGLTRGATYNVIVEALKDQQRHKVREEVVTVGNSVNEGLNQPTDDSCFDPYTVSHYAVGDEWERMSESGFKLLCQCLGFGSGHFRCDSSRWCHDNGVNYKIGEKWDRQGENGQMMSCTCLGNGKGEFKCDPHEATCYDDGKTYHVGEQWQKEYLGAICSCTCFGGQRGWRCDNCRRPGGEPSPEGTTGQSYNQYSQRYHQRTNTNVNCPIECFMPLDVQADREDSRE

Substance	ddG of mutation (higher = less stable) [1] [kcal/mol]	denaturant m value [1] [kcal/mol/M]	denaturant midpoint (higher = more stable) [1] [M]	ddG of mutation (higher = less stable) [2] [kcal/mol]	denaturant m value [2] [kcal/mol/M]	denaturant midpoint (higher = more stable) [2] [M]	ddG of mutation (higher = less stable) [3] [kcal/mol]	denaturant m value [3] [kcal/mol/M]	denaturant midpoint (higher = more stable) [3] [M]
Tenascin, P24821 E887A	-1.61	5.04	1.3	-1.61	1.2	6.64			
Tenascin, P24821 Y837A				4.22	1.5	1.86			
Tenascin, P24821 L863A	4.22	4.55	1.2	4.22	1.5	1.86			
Tenascin, P24821 I821V	0.23	3.9	1	0.23	1.2	5.13			
Tenascin, P24821 V871A				2.81	1.3	3.01			
Tenascin, P24821 I860A				2.06	1.3	3.63			
Fibronectin F1585A, P02751							2.16	6.8	1.14
Tenascin, P24821 V811A	1.36	3.03	1.3	1.36	1.2	4.21			
